Assay results from article PMC9258132, “Multi-omics profiling identifies a deregulated FUS-MAP1B axis in ALS/FTD–associated UBQLN2 mutants”.

Experiments:
MBP-FUS-His6 S439A = MBP-FUS-His6 S439A (UniProt P35637 1-526, S439A); experiment: EMSA; 5 mM MgCl2, 0.1 mg/ml yeast tRNA; 5 nM RNA, 0-10 uM protein; 20 mM NaPO4 pH 8, 150 mM NaCl, 5% glycerol, 1 mM DTT, 5 mM MgCl2, 0.5 mg/ml BSA, 0.1 mg/ml yeast tRNA, 1 U/ul RNase inhibitor, 20 min RT; 6% native PAGE in 0.5x TBE; conditions: protein: recombinant; tags: N-terminal MBP, C-terminal His6; hairpin with 3' single-stranded tail
MBP-FUS-His6 S439E = MBP-FUS-His6 S439E (UniProt P35637 1-526, S439E); experiment: as above; conditions: protein: recombinant; tags: N-terminal MBP, C-terminal His6; hairpin with 3' single-stranded tail
Sequence of MBP-FUS-His6 S439E (P35637 whole entry S439E): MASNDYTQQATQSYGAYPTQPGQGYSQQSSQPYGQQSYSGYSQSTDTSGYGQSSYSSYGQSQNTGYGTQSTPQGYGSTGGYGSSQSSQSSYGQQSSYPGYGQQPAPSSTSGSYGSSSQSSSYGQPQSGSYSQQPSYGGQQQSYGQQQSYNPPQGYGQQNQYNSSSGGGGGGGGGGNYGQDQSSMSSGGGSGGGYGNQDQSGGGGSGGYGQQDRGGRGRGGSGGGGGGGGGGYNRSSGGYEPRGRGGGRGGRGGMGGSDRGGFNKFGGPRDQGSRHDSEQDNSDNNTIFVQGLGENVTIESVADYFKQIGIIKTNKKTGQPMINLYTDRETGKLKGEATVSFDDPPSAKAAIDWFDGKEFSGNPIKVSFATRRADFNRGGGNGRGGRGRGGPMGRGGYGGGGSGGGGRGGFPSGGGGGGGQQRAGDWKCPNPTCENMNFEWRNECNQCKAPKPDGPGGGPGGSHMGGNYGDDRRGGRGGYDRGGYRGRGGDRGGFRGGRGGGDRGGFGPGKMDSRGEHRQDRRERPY

Sequence of MBP-FUS-His6 S439A (P35637 whole entry S439A): as the sequence (P35637 whole entry S439E) above, with E439A counted along it

B1: SON pre-mRNA stem loop with downstream GGU motif (structured_RNA)
RNA: GGAUCUUUAACUACUCAAGAUACUGAACAUGACAUGGUA
B1: binds (MBP-FUS-His6 S439A); no binding (MBP-FUS-His6 S439E).
